Data taken from article PMC9692563, “The HIV-1 Integrase C-Terminal Domain Induces TAR RNA Structural Changes Promoting Tat Binding”.

Columns and labels:
[1] = system: Tat (HIV-1 primary isolate 133); assay: BLI; conditions: EMSA: 20 mM MES pH 6.0, 150 mM NaCl, 2 mM DTT, 2 mM MgCl2, BSA, 8% PEG8000, 37 C 30 min (IN-FLm 2 h at 4 C); BLI: 50 mM HEPES pH 7.5, 200 mM NaCl, 2 mM BME, 5% …
[2] = target: T1, IN-FLm (HIV-1 integrase, mammalian expressed) (HIV-1, UniProt P12497 1148-1435); assay: EMSA; similar to wild type; EMSA: 20 mM MES pH 6.0, 150 mM NaCl, 2 mM DTT, 2 mM MgCl2, BSA, 8% PEG8000, 37 C 30 min (IN-FLm 2 h at 4 C); BLI: 50 mM HEPES pH 7.5, 200 mM NaCl, 2 mM BME, 5%; conditions: protein: recombinant; tags: N-terminal Flag; label: 5' 32P; hairpin
[3] = target: T2, IN-CTD-dCT (HIV-1, UniProt P12497 1367-1417); assay: EMSA; not affected by stem shortening; EMSA: 20 mM MES pH 6.0, 150 mM NaCl, 2 mM DTT, 2 mM MgCl2, BSA, 8% PEG8000, 37 C 30 min (IN-FLm 2 h at 4 C); BLI: 50 mM HEPES pH 7.5, 200 mM NaCl, 2 mM BME, 5%; conditions: protein: recombinant; tags: N-terminal 6xHis; label: 5' 32P; hairpin
[4] = target: T2, IN-CTD-dCT; assay: EMSA; EMSA: 20 mM MES pH 6.0, 150 mM NaCl, 2 mM DTT, 2 mM MgCl2, BSA, 8% PEG8000, 37 C 30 min (IN-FLm 2 h at 4 C); BLI: 50 mM HEPES pH 7.5, 200 mM NaCl, 2 mM BME, 5%; conditions: protein: recombinant; tags: N-terminal 6xHis; label: 5' 32P; hairpin with bulge and hexaloop
[5] = target: IN-FL (integrase, E. coli) (HIV-1 NL4-3 (pNL4-3), UniProt P12497 1148-1435); assay: as above; conditions: protein: recombinant; tags: N-terminal 6xHis; label: 5' 32P; hairpin with bulge and hexaloop
[6] = target: T1, IN-FLm (HIV-1 integrase, mammalian …); assay: as above; conditions: protein: recombinant, tags: N-terminal Flag, label: 5' 32P
[7] = target: T3, IN-CTD (HIV-1, UniProt P12497 1367-1435); assay: as above; conditions: protein: recombinant, tags: N-terminal 6xHis, label: 5' 32P
[8] = target: T2, IN-CTD-dCT; assay: BLI; 200 mM NaCl, 37 C; EMSA: 20 mM MES pH 6.0, 150 mM NaCl, 2 mM DTT, 2 mM MgCl2, BSA, 8% PEG8000, 37 C 30 min (IN-FLm 2 h at 4 C); BLI: 50 mM HEPES pH 7.5, 200 mM NaCl, 2 mM BME, 5%; conditions: protein: recombinant; tags: N-terminal 6xHis; label: 3' biotin; hairpin
[9] = target: T3, IN-CTD; assay: as above; conditions: protein: recombinant; tags: N-terminal 6xHis; label: 3' biotin; hairpin
[10] = hairpin with bulge and hexaloop

Molecule: CGUCCAUCUGGUCAUCUAGUGAUAUCAUCG [Bt-RNA(30)-mer]
- Kd [1]: 3840 nM

Molecule: GGGCCAGAUCUGAGCCUGGGAGCUCUCUGGCCC [Bt-TAR]
- Kd [1]: 1490 nM

B1: TAR-LS (structured_RNA)
RNA: GGGUCUCUCUGGUUAGACCAGAUCUGAGCGCUGGGACGCUCUCUGGCUAACUAGGGAACCC
- binding result [2]: binds

B2: TAR-SS (structured_RNA)
RNA: GGGUCUCUCUGGUUAGACCAGAUCUGAGCUGGGACUCUCUGGCUAACUAGGGAACCC
- binding result [3]: binds

B3: TAR (structured_RNA)
RNA: GGGUCUCUCUGGUUAGACCAGAUCUGAGCCUGGGAGCUCUCUGGCUAACUAGGGAACCC
- binding result [4]: binds
- binding result [5]: binds
- binding result [6, 10]: binds
- binding result [7, 10]: binds

B4: SD/Psi (structured_RNA)
RNA: GGGCGACUGGUCAGUACGCCAAAAAUUUUGACUAGCGGAGGCUAGAAGGAG
- binding result ([7]; hairpin): binds

Molecule: GGGCUCGGCUUGCUGAAGCGCGCACGGCAAGAGGCGAG (structured_RNA) [DIS]
- binding result ([7]; hairpin): binds

Molecule: GGGCCAGAUCUGAGCCUGGGAGCUCUCUGGCCC (structured_RNA) [Bt-TAR]
- Kd [8]: 770 nM
- Kd [9]: 320 nM

B5: TAR-VSS (structured_RNA)
RNA: GGGUCUCUCUGGUUAGACCAGAUCUGAGCGCUCUCUGGCUAACUAGGGAACCC
- binding result [3]: binds

Molecule: CGUCCAUCUGGUCAUCUAGUGAUAUCAUCG (ssRNA) [RNA(30)-mer]
- binding result ([6]; weakly structured): binds

Molecule: GGGCACUGCUUAAGCCUCAAUAAAGCUUGCCUUGAGUGCUUCAAGUAGUG (structured_RNA) [polyA]
- binding result ([7]; hairpin): binds
